Measured values: US10722558 (dated 2020)
Numbering of substitutions follows the chain as printed. In names and notes the source's numbering stands. Like-named read-outs stand apart in the source and are kept apart here. One block for each binder: values may come before it.

Legend:
GDF11 [1] = target: T1, GDF11 (human, UniProt O95390); experiment: SPR
T1 chain: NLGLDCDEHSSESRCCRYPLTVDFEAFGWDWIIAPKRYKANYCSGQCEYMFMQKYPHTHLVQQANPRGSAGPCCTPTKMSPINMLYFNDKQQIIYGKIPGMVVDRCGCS

Activin B [2] = target: T2, Activin B (human, UniProt P09529); experiment: SPR
T2 chain: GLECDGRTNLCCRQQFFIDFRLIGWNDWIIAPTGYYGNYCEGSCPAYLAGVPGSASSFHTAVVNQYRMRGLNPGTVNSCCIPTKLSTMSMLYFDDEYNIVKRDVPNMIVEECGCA

Activin A [3] = target: T3, Activin A (human, UniProt P08476); experiment: SPR
T3 chain: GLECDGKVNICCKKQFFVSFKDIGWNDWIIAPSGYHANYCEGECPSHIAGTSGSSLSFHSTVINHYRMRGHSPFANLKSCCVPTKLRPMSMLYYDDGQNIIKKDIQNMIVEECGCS

GDF11 [4] = target: T1, GDF11; experiment: SPR
Activin A [5] = target: T3, Activin A; experiment: SPR
BMP6 = target: T4, BMP6 (human, UniProt P22004); experiment: SPR
T4 chain: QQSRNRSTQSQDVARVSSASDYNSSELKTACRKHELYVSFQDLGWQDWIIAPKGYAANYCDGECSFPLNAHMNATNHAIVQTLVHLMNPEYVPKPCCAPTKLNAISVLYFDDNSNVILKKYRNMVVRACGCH

GDF11 [6] = target: T1, GDF11; experiment: SPR
Activin A [7] = target: T3, Activin A; experiment: SPR
Activin B [8] = target: T2, Activin B; experiment: SPR
GDF3 = target: T5, GDF3 (human, UniProt Q9NR23); experiment: SPR
T5 chain: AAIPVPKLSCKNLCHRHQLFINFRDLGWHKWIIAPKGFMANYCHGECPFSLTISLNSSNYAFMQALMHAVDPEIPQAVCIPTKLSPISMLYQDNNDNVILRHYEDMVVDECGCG

BMP9 = target: T6, BMP9 (human, UniProt Q9UK05); experiment: SPR, transient
T6 chain: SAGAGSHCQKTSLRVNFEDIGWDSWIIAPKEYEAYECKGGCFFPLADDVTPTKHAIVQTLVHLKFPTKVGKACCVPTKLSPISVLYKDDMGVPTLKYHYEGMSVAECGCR

BMP10 = target: T7, BMP10 (human, UniProt O95393); experiment: SPR
T7 chain: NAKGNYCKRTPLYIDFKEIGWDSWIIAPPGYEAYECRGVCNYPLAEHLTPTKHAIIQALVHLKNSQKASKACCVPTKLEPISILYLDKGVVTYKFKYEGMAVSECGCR

GDF8 [9] = target: T8, GDF8 (human, UniProt O14793); experiment: SPR
Activin A [10] = target: T3, Activin A; experiment: SPR
GDF8 [11] = target: T8, GDF8; experiment: SPR; remark: listed apart in the source
GDF11 [12] = target: T1, GDF11; experiment: SPR, very low signal

T8 sequence (O14793 267-375): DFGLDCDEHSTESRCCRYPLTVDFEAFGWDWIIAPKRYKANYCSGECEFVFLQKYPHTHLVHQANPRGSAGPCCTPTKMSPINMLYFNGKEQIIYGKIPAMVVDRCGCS

B1: ActRIIB(L79D 20-134)-hFc (protein)
chain: GRGEAETRECIYYNANWELERTNQSGLERCEGEQDKRLHCYASWRNSSGTIELVKKGCWDDDFNCYDRQECVATEENPQVYFCCCEGNFCNERFTHLPEAGGPEVTYEPPPTAPTGGGTHTCPPCPAPELLGGPSVFLFPPKPKDTLMISRTPEVTCVVVDVSHEDPEVKFNWYVDGVEVHNAKTKPREEQYNSTYRVVSVLTVLHQDWLNGKEYKCKVSNKALPVPIEKTISKAKGQPREPQVYTLPPSREEMTKNQVSLTCLVKGFYPSDIAVEWESNGQPENNYKTTPPVLDSDGSFFLYSKLTVDKSRWQQGNVFSCSVMHEALHNHYTQKSLSLSPGK
Kd (GDF11 [1]): 123 pM
Kd (Activin B [2]): 788 pM
Kd (Activin A [3]): 13500 pM

B4: ActRIIB(20-134)-hFc (protein)
chain: B1 chain with D60L
Kd (GDF11 [1]): 36 pM
Kd (Activin B [2]): 12 pM
Kd (Activin A [3]): 16 pM

B5: ALK4-Fc:ActRIIB-Fc heterodimer (protein)
chain 1: SGPRGVQALLCACTSCLQANYTCETDGACMVSIFNLDGMEHHVRTCIPKVELVPAGKPFYCLSSEDLRNTHCCYTDYCNRIDLRVPSGHLKEPEHPSMWGPVETGGGTHTCPPCPAPELLGGPSVFLFPPKPKDTLMISRTPEVTCVVVDVSHEDPEVKFNWYVDGVEVHNAKTKPREEQYNSTYRVVSVLTVLHQDWLNGKEYKCKVSNKALPAPIEKTISKAKGQPREPQVYTLPPSREEMTKNQVSLTCLVKGFYPSDIAVEWESNGQPENNYDTTPPVLDSDGSFFLYSDLTVDKSRWQQGNVFSCSVMHEALHNHYTQKSLSLSPG
chain 2: B1 chain with D60L, V226A, E252K, D295K
Kd (BMP6): 2700 pM
Kd (GDF11 [6]): 3 pM
Kd (Activin A [7]): 12 pM
Kd (Activin B [8]): 6 pM
Kd (GDF3): 4900 pM
Kd (BMP9): 3400 pM
Kd (BMP10): 74 pM
Kd (GDF8 [9]): 550 pM

B6: ActRIIB(R64K 20-129)-hFc (protein)
chain: GRGEAETRECIYYNANWELERTNQSGLERCEGEQDKRLHCYASWKNSSGTIELVKKGCWLDDFNCYDRQECVATEENPQVYFCCCEGNFCNERFTHLPEAGGPEVTYEPP
Kd (Activin A [10]): 84.1 pM
Kd (GDF8 [11]): 2150 pM

B7: ALK4-Fc homodimer (protein)
chain: SGPRGVQALLCACTSCLQANYTCETDGACMVSIFNLDGMEHHVRTCIPKVELVPAGKPFYCLSSEDLRNTHCCYTDYCNRIDLRVPSGHLKEPEHPSMWGPVE
Kd (GDF11 [12]): 270 pM

More lines, now with the values ahead:

binding result (GDF11 [4]): no binding
B2: ActRIIB-Fc K55A (protein)
chain: B1 chain with K55A, D60L

Kd (Activin A [5]): ~26000 pM
B3: ActRIIB-Fc +15tail (protein)
chain: B1 chain with D60L
